Blank lines part the entries; values can stand above or below the binder they belong to.
Biological target: T1, purified human MIB1 protein (human, UniProt Q86YT6 1-1006)
T1 construct: MIB1, human; source: E. coli BL21 (DE3), pET28a-sumo, purified (AKTA pure chromatography)
Assay: SPR; Biacore T200, CM5 chip, amine coupling in 10 mM sodium acetate pH 4.0 to 5000 RU, 25 °C, running buffer PBS, 0.05% Tween-20, 1% DMSO; multicycle kinetics, 1:1 Langmuir fit; which of the two proteins was immobilised is not stated
Details: both partners purified

T1 sequence (Q86YT6 whole entry): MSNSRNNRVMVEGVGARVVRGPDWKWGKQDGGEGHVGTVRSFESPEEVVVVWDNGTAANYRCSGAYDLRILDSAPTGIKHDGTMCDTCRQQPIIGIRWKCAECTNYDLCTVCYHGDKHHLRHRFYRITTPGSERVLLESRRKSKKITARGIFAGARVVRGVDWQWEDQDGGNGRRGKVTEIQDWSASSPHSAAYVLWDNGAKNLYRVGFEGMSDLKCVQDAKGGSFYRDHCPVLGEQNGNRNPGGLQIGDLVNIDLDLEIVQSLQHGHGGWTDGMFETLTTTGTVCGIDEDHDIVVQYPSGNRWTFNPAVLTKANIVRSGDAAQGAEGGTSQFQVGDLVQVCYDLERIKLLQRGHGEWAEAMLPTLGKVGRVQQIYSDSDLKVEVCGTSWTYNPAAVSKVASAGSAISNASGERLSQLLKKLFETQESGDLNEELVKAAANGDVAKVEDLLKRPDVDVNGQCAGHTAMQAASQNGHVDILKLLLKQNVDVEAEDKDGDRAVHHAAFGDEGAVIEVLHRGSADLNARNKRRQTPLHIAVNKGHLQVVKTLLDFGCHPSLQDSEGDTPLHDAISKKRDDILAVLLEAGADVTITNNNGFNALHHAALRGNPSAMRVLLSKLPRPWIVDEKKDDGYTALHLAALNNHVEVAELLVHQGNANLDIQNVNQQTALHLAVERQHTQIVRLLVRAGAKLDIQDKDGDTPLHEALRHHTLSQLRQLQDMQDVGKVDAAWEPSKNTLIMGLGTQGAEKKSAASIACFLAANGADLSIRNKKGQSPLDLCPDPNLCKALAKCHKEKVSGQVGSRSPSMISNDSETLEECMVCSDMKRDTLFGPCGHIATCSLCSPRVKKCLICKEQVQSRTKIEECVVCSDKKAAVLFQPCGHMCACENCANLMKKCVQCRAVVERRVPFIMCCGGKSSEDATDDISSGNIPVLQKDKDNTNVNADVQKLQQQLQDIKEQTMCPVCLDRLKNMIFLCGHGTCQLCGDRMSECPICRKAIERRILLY

Kd: 121 nM
B1: purified human BLM-WT protein (natural protein)
chain: not shown
notes: BLM, human; also called WT BLM; source: E. coli BL21 (DE3), pET28a-sumo, purified (AKTA pure chromatography)

Kd: 26.8 nM
B2: purified human BLM-K24R protein (natural protein)
chain: not shown
notes: BLM, human, K24R; also called K24R BLM; BLM-K24R mutant; source: E. coli BL21 (DE3), pET28a-sumo, purified (AKTA pure chromatography)

Reference: article PMC12241633, “Irinotecan alleviates chemoresistance to anthracyclines through the inhibition of AARS1-mediated BLM lactylation and homologous recombination repair” (Signal Transduction and Targeted Therapy, 2025)
